In article PMC8939769 (2022):

Biological target: SARS-CoV-2 spike protein receptor binding domain (RBD) (SARS-CoV-2, UniProt P0DTC2 319-541)
Assay: ELISA

B1: AZD8895 (tixagevimab) (antibody, V domains shown)
VH: QMQLVQSGPEVKKPGTSVKVSCKASGFTFMSSAVQWVRQARGQRLEWIGWIVIGSGNTNYAQKFQERVTITRDMSTSTAYMELSSLRSEDTAVYYCAAPYCSSISCNDGFDIWGQGTMVTVSS
VL: not shown
With B1 the IC50 was 0.0477 µg/mL.
